Data as given in patent publication US20130261013A1.
Primed or numbered codes have the meaning given here. Side chains are listed from the residue outwards. Ends that are not written are not given here. * marks the point of attachment. dT′ = N3-(decanoic acid)-2'-deoxythymidine (dT probe 19), Cc1cn([C@H]2C[C@H](O)[C@@H](CO)O2)c(=O)n(CCCCCCCCCC(=O)*)c1=O; coumarin = 7-methoxycoumarin-3-carboxylic acid, COc1ccc2cc(C(=O)*)c(=O)oc2c1; 25OHVD3 = 25-hydroxyvitamin D3, linked at its carbon 11; Dansyl = CN(C)c1cccc2c(S(=O)(=O)*)cccc12; 8C = 8-carbon spacer; Ahx = NCCCCCC(=O)O; VD3 = vitamin D3

T1: vitamin D binding protein
T1 sequence (P02774 17-474, species assumed, looked up): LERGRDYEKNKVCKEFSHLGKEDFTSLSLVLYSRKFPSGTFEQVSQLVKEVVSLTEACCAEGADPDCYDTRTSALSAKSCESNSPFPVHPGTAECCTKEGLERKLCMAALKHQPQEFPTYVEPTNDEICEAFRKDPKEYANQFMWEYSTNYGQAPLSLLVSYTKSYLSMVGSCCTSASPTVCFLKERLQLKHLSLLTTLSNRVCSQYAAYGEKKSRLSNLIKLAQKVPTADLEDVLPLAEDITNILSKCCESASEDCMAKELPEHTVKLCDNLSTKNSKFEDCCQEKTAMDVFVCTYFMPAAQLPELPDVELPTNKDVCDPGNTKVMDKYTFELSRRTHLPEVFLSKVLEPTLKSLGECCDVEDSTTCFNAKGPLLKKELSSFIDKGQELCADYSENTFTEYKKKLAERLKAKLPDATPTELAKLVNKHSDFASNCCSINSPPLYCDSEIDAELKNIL


Target: T1, vitamin D binding protein
Assay: SPR (Biacore 2000), DBP immobilized on CM5, 1:1 model

Binder	Kd
Ac-NEADLEAK([8C-25OHVD3])IRHLAEK(Dansyl)LEARGPEDAEQLAEQLARAFEAFARAG (designed binder) [1-C15L8-8C-25OHVD3 (dansyl)]	290 nM
Ac-NEADLEAK([8C-25OHVD3])IRHLAEK(Dansyl)LAARGPVDAAQLAEQLARAFEAFARAG (designed binder) [2-C15L8-8C-25OHVD3 (dansyl)]	480 nM
Ac-NAADLEAK([Ahx-25OHVD3])IRHLAEK(Dansyl)LAARGPVDAAQLAEQLARRFEAFARAG (designed binder) [3-C15L8-6C-25OHVD3 (dansyl)]	1300 nM
Ac-NAADLEAK([8C-25OHVD3])IRHLAEK(Dansyl)LAARGPVDAAQLAEQLARRFEAFARAG (designed binder) [3-C15L8-8C-25OHVD3 (dansyl)]	1100 nM
Ac-NAADLEAKIRHLREK(Dansyl)LAARGPRDAAQLAEQLARRFERFARAG (designed binder, not fully specified (residue 8)) [4-C15L8-6C-VD3 (dansyl)]	1800 nM
Ac-NAADLEAK([Ahx-25OHVD3])IRHLREK(coumarin)LAARGPRDAAQLAEQLARRFERFARAG (designed binder) [4-C15L8-6C-25OHVD3 (coumarin)]	50 nM
Ac-NAADLEAK([8C-25OHVD3])IRHLREK(Dansyl)LAARGPRDAAQLAEQLARRFERFARAG (designed binder, not fully specified (C-terminus)) [4-C15L8-8C-25OHVD3 (dansyl)]	110 nM
Ac-NAADLEARIK(Dansyl)HLAERLK([8C-25OHVD3])ARGPVDAAQLAEQLARAFEAFARAG (designed binder) [3-C10L17-8C-25OHVD3 (dansyl)]	1200 nM
Ac-NAADLEARIK(Dansyl)HLRERLKARGPRDAAQLAEQLARAFERFARAG (designed binder, not fully specified (residue 17)) [4-C10L17-6C-VD3 (dansyl)]	890 nM
NAADLEARIRHLRERLAARGPK([Ahx-VD3])DAK(Dansyl)QLAEQLARAFERFARAG (designed binder, not fully specified (N-terminus, C-terminus)) [4-C25L22-6C-VD3 (dansyl)]	1300 nM
NAADLEARIRHLRERLAARGPK([Ahx-25OHVD3])DAK(Dansyl)QLAEQLARAFERFARAG (designed binder, not fully specified (N-terminus, C-terminus)) [4-C25L22-6C-25OHVD3 (dansyl)]	750 nM
NAADLEARIRHLRERLAARGPRDAAQLAEQLARK([Ahx-VD3])FEK(Dansyl)FARAG (designed binder, not fully specified (N-terminus, C-terminus)) [4-C37L34-6C-VD3 (dansyl)]	900 nM
NAADLEARIRHLRERLAARGPRDAAQLAEQLARK([Ahx-25OHVD3])FEK(Dansyl)FARAG (designed binder, not fully specified (N-terminus, C-terminus)) [4-C37L34-6C-25OHVD3 (dansyl)]	190 nM

Target: thymidine kinase
Assay: fluorescence screen, 2 µM binder, 2 and 4 µM TK; estimate for 'hits'

Binder	Kd
Ac-NAADLEAK(dT′)IRHLAEK(Dansyl)LAARGPVDAAQLAEQLARRFEAFARAG (designed binder) [3-C15L8-dT]	< 20 nM
Ac-NAADLEAAIK(Dansyl)HLAEALK(dT′)ARGPVDAAQLAEQLARAFEAFARAG (designed binder) [2-C10L17-dT]	< 20 nM
Ac-NAADLEARIK(Dansyl)HLRERLK(dT′)ARGPRDAAQLAEQLARAFERFARAG (designed binder) [4-C10L17-dT]	< 20 nM
Ac-NAADLEAAIRHLAERLAARGPK(dT′)DAK(Dansyl)QLAEQLARAFEAFARAG (designed binder) [3-C25L22-dT]	< 20 nM
